4 substances from publication doi:10.1101/2020.08.31.20184481 can be followed below.

Experiment [1] deals with R1003W GFP-βIISp (human) (UniProt Q01082). The experiment in a line: pull-down.
The target in experiment [2] is F-actin (UniProt P68135). Nature of the experiment: co-sedimentation.

Sequence of R1003W GFP-βIISp (human) (Q01082 whole entry R1003W): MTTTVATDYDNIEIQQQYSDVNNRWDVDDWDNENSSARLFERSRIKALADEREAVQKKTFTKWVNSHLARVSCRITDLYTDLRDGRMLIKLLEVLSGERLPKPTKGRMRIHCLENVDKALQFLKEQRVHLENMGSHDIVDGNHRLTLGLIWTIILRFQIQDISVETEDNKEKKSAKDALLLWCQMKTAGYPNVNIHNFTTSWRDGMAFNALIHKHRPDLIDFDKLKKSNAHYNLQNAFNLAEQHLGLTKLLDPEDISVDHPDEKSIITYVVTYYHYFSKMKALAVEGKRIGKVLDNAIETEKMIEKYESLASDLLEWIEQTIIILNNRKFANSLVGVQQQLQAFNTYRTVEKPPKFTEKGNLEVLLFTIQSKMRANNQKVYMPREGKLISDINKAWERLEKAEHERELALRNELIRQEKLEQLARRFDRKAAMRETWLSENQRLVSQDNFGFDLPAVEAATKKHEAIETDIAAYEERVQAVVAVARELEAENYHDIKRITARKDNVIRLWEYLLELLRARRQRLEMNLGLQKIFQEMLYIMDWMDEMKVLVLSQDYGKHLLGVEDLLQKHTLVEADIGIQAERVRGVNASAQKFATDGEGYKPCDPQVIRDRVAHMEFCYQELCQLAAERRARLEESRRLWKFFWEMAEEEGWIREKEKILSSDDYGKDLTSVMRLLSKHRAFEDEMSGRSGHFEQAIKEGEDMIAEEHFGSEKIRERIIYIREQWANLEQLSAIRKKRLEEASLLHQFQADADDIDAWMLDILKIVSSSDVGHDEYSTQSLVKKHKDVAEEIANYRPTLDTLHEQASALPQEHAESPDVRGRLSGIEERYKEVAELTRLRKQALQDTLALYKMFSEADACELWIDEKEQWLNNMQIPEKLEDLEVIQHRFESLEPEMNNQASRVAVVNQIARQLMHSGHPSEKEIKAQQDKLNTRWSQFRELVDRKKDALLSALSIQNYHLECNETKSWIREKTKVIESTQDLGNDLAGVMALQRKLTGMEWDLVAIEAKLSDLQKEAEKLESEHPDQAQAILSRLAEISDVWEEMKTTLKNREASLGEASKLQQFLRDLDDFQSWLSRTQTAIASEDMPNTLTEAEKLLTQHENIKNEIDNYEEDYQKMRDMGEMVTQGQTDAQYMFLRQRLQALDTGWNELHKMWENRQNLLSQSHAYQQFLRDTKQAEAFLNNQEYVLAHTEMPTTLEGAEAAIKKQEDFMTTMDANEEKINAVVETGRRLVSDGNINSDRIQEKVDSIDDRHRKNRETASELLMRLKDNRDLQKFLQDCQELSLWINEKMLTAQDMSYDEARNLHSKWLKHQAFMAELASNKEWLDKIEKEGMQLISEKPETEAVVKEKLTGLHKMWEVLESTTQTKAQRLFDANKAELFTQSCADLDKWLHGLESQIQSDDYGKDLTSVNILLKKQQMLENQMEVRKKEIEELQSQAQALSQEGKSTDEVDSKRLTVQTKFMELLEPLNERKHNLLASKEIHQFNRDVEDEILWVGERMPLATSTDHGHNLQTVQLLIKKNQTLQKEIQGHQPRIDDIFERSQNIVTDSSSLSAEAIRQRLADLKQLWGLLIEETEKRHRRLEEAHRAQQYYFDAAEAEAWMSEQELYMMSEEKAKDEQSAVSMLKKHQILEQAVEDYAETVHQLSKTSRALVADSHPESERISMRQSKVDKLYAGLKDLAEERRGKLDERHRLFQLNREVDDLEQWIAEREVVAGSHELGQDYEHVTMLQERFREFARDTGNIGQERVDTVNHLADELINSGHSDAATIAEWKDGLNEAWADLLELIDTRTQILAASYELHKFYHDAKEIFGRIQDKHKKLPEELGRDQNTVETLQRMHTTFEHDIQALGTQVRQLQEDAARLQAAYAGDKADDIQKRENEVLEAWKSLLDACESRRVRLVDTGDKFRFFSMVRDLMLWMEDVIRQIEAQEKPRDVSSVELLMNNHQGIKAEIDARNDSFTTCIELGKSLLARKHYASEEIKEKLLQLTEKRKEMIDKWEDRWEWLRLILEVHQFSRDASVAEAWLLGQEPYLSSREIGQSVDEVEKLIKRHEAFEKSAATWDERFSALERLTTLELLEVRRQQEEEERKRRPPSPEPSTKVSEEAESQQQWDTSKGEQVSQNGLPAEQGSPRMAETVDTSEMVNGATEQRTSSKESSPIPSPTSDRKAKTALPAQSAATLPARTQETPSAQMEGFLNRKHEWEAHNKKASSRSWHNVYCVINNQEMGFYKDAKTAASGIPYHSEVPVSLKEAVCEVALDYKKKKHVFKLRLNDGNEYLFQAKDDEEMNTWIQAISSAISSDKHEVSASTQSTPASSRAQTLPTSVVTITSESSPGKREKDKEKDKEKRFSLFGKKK

Turning to “mCherry-tagged αII-spectrin, Q13813-2 1-2477”, in experiment [1], the percent reduction of association against WT GFP-βIISp stood at 40%.

In experiment [2], “purified full-length βII-spectrin p.A850G (from UniProt Q01082-1 1-2364) (natural protein)” yielded a percent higher F-actin binding than WT of 50%.

With “purified full-length βII-spectrin p.I159_Q160del (from UniProt Q01082-1 1-2364) (natural protein)”, the percent less association with F-actin than WT in experiment [2] was 70%.

As to “purified full-length βII-spectrin p.T59I (from UniProt Q01082-1 1-2364) (natural protein)”, the percent less association with F-actin than WT in experiment [2] was found to be 40%.
